Reference: paper PMC9118924

The substances below were run against arrestin-3 fused to nanoluciferase (UniProt P32121) (assay: arrestin-3 interaction assay (hGPR84-eYFP with arrestin-3-nanoluciferase), 2-HTP concentration-response). Settings: value read at the highest 2-HTP concentration, Log [2-HTP] M = -4; parent: est. 100; read off a plot.

In order of falling percent of parent:
1. FLAG-human GPR84-eYFP (from UniProt Q9NQS5) pmCt (the two serine residues of the C-terminal tail converted to alanine; positions not printed legibly)  75 % of WT
2. FLAG-human GPR84-eYFP (from UniProt Q9NQS5) pmIL3 (all 21 serine and threonine residues of the third intracellular loop converted to alanine; positions not printed legibly)  28 % of WT
3. FLAG-human GPR84-eYFP (from UniProt Q9NQS5) pmIL3-Ct (all 21 serines/threonines of the third intracellular loop and the two serines of the C-terminal tail converted to alanine; positions not printed legibly)  28 % of WT
